Reference: patent US9512196B2, “Short-form human MD-2 as a negative regulator of toll-like receptor 4 signaling” (Cedars-Sinai Medical Center, priority 2008, dated 2016)

Legend:
[1] = system: MD-2 tyrosine phosphorylation; test: LPS-induced MD-2 tyrosine phosphorylation in HEK293 cells (immunoprecipitation, anti-phosphotyrosine immunoblot); format: cell-based, human; details: pretreatment 1-2 h before LPS; HEK293 cells overexpressing TLR4 and MD-2
Procedure: 24 h later cells were left untreated (lanes 1 and 2) or stimulated with LPS (lanes 3-7). Flag-tagged proteins were immunoprecipitated with an anti-Flag Ab in cell lysates and analyzed by SDS-PAGE and immunoblotted with an anti-phosphotyrosine Ab (top panel), or an anti-Flag Ab (middle and lower panels). (B) HEK293 cells were transiently transfected with Flag-TLR4 and Flag-MD-2 (lanes 1-5). 24 hrs later, cells were pretreated for 2 hrs with herbimycin A at 0.5 μg/ml (lane 3) or 2.5 μg/ml (lane 4), or for 1 hr with 2 μM cytochalasin D (lane 5) prior to stimulation with LPS for 5 mins.
(A) HEK293 cells were transiently transfected with TLR4 and Myc-MD-2 (lanes 1-6). […] Myc-tagged proteins were immunoprecipitated with an anti-Myc Ab in cell lysates, and analyzed by SDS-PAGE and immunoblotted with an anti-phosphotyrosine Ab (top panel), or an anti-Myc Ab (lower panel). […] Cells were left untreated or stimulated with LPS for 6 hours and luciferase activity measured in cell lysates and expressed as fold induction relative to untreated cells.
Tyrosine phosphorylation of numerous proteins is induced upon stimulation with LPS and indeed the LPS receptor, TLR4, is itself tyrosine phosphorylated. […] Proteins were immunoprecipitated from cell extracts with an anti-Flag Ab and analyzed by immunoblotting with an Ab that detects proteins phosphorylated on phosphotyrosine residues. […]

[2] = biological target: T1, TLR4 (Homo sapiens, UniProt O00206); test: NF-κB luciferase reporter in HEK293 cells expressing TLR4, LPS stimulation; format: cell-based; details: for Ability to activate NF-κB upon LPS stimulation compared to wild-type MD-2: construct transfected into HEK293 TLR4/NF-κB reporter cells, LPS 6 h; for Decrease in NF-κB activity upon LPS stimulation: versus wild-type MD-2
T1 construct: expressed in transfected cells; host or cells: HEK293
T1 sequence (O00206 24-839): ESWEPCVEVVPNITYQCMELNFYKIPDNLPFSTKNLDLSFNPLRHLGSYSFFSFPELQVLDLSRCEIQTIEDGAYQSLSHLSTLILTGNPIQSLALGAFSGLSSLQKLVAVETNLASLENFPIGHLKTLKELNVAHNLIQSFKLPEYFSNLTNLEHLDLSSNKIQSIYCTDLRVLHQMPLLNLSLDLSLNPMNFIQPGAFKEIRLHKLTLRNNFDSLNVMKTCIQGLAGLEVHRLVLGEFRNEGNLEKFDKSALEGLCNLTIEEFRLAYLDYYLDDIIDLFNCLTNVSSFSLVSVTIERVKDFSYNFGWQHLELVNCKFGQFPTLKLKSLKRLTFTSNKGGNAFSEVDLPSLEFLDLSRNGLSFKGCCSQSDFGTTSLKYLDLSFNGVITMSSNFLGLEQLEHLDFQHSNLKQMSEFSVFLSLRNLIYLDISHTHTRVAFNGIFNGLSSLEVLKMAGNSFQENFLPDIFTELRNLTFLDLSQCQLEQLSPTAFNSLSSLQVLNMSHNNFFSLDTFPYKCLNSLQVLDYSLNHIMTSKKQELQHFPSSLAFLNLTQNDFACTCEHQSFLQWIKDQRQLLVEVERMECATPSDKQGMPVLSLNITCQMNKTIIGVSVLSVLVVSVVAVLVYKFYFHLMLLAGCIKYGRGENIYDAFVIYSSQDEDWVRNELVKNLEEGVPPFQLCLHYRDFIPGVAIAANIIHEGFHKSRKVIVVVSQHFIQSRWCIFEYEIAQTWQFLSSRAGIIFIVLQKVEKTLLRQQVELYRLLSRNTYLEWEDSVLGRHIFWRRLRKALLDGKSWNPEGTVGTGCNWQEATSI
Procedure: (A) HEK-293 cells stably transfected with TLR4 and a NF-κB reporter gene were treated with supernatants containing either MD-2 or MD-2s as described in the examples herein. Cells were left untreated or stimulated with LPS for 24 h. Mean relative stimulation of luciferase activity±S.D. for a representative experiment, each performed in triplicate, is shown. (B) HEK-293 cells stably transfected with TLR4 and a NF-κB reporter gene were transiently transfected with plasmids encoding for either MD-2, MD-2s or CD14 as shown. 24 h later, cells were left untreated or stimulated with LPS (250 ng/ml) for 6 h. Mean relative stimulation of luciferase activity±SD for a representative experiment, each performed in triplicate, is shown. (C) and (D) Supernatants were also collected and measured for IL-8 secretion.
(A) HEK293 cells were transiently transfected with plasmids encoding TLR4 and a NF-κB reporter gene in combination with MD-2 and MD-2s as indicated. 24 h later, cells were left untreated or incubated with LPS (250 ng/ml) for 5 h. Mean relative stimulation of luciferase activity±S.D. for a representative experiment from three separate experiments, each performed in triplicate, is shown. (B) HEK-293 cells stably transfected with TLR4 and a NF-κB reporter gene were treated with supernatants containing either MD-2 and MD-2s as depicted and left untreated or incubated with LPS for 24 h. Mean relative stimulation of luciferase activity±S.D. for a representative experiment from three separate experiments, each performed in triplicate, is shown.
HEK293 cells were transiently transfected with the expression vectors noted in combination with constructs encoding the NF-κB- and IL-8-luciferase reporter gene, and either the β-galactosidase gene or the phRL-TK report gene to normalize for transfection efficiency. In all cases, total DNA concentration was kept constant by supplementation with empty vector control. Following overnight incubation, cells were stimulated for 6 hours with 50 ng/ml LPS and then lysed, and luciferase activity was measured as described previously (Ohta et al. (2004) BIOCHEM BIOPHYS RES COMMUN 323, 1103-1108). Data are shown as mean±SD of three or more independent experiments and are reported as a percentage of LPS-stimulated NF-κB and IL-8 promoter activity, or relative luciferase activity.
The requirement for MD-2s in LPS mediated NF-κB activation was assessed. It has been shown that the soluble form of wild-type MD-2 confers LPS responsiveness to cells expressing TLR4; therefore, it was investigated if soluble MD-2s was also bioactive. Culture supernatants were obtained from HEK293 cells transiently expressing control vector, MD-2, or MD-2s, and incubated with HEK293 cells stably transfected with TLR4 and an NF-κB-dependent luciferase reporter gene.
MD-2s was tested to see if it needed to be transiently expressed in TLR4 reporter cells in order to mediate NF-κB activation following LPS stimulation. HEK293 cells stably transfected with TLR4 and an NF-κB-dependent luciferase reporter gene were transiently transfected with plasmids encoding CD14 in combination with either MD-2 or MD-2s, and subsequently treated with LPS.
HEK293 cells were transiently transfected with plasmids encoding CD14, TLR4, and wild-type MD-2 in conjunction with a plasmid encoding the NF-κB-dependent luciferase reporter gene in the presence or absence of a plasmid encoding MD-2s. […] Furthermore, we assessed the inhibitory role of soluble MD-2s following LPS stimulation. HEK293 cells stably transfected with TLR4 and an NF-κB-dependent luciferase reporter gene were incubated with supernatants obtained from HEK293 cells transiently expressing a constant amount of MD-2 with increasing concentrations of MD-2s.

Ability to activate NF-κB upon LPS stimulation compared to wild-type MD-2 [2]	Decrease in NF-κB activity upon LPS stimulation [2] [%]	Molecule	Effect on LPS-induced MD-2 tyrosine phosphorylation [1]
		CO[C@H]1[C@@H](OC)C[C@H](C)[C@@H](OC)C2=CC(=O)C=C(NC(=O)/C(C)=C/C=C\[C@H](OC)[C@@H](OC(N)=O)/C(C)=C/[C@@H]1C)C2=O [herbimycin A]	significantly inhibited
		C=C1[C@@H](C)[C@H]2[C@H](Cc3ccccc3)NC(=O)[C@]23[C@H](OC(C)=O)/C=C/[C@@](C)(O)C(=O)[C@@H](C)C/C=C/[C@H]3[C@@H]1O [cytochalasin D]	significantly inhibited
significantly less potent	50	MD-2-Y22F: human MD-2 with tyrosine 22 mutated to phenylalanine (protein, Tyrosine to phenylalanine mutation at position 22 of human MD-2, human MD-2 with tyrosine 22 mutated to phenylalanine) MLPFLFFSTLFSSIFTEAQKQFWVCNSSDASISYTYCDKMQYPISINVNPCIELKRSKGLLHIFYIPRRDLKQLYFNLYITVNTMNLPKRKEVICRGSDDDYSFCRALKGETVNTTISFSFKGIKFSKGKYKCVVEAISGSPEEMLFCLEFVILHQPNSN	
significantly less potent	50	MD-2-Y131F: human MD-2 with tyrosine 131 mutated to phenylalanine (protein, Tyrosine to phenylalanine mutation at position 131 of human MD-2, human MD-2 with tyrosine 131 mutated to phenylalanine) MLPFLFFSTLFSSIFTEAQKQYWVCNSSDASISYTYCDKMQYPISINVNPCIELKRSKGLLHIFYIPRRDLKQLYFNLYITVNTMNLPKRKEVICRGSDDDYSFCRALKGETVNTTISFSFKGIKFSKGKFKCVVEAISGSPEEMLFCLEFVILHQPNSN	

Molecule	Ability to activate NF-κB upon LPS stimulation compared to wild-type MD-2 [2]	Decrease in NF-κB activity upon LPS stimulation [2] [%]	Effect on LPS-induced MD-2 tyrosine phosphorylation [1]
MD-2-Y22FY131F: human MD-2 double mutant, tyrosines 22 and 131 mutated to phenylalanine (protein, Tyrosine to phenylalanine mutation at position 22 and 131 of human MD-2, human MD-2 double mutant, tyrosines 22 and 131 mutated to phenylalanine) MLPFLFFSTLFSSIFTEAQKQFWVCNSSDASISYTYCDKMQYPISINVNPCIELKRSKGLLHIFYIPRRDLKQLYFNLYITVNTMNLPKRKEVICRGSDDDYSFCRALKGETVNTTISFSFKGIKFSKGKFKCVVEAISGSPEEMLFCLEFVILHQPNSN	do not activate NF-κB as strongly as wild-type MD-2		
